Measurements published in article PMC10475540, “The teleost fish PepT1-type peptide transporters and their relationships with neutral and charged substrates” (Frontiers in Physiology, 2023).
Peptide text beside a SMILES is read from it.

What was measured:
zfPepT1b = target: T1, zfPepT1b (Danio rerio, UniProt Q7SYE4); test: two-electrode voltage clamp, transport current, Xenopus oocytes; format: cell-based; conditions: 1 mmol/L, pH 7.6, -60 mV
T1 construct: gene slc15a1b; complete ORF in pSPORT1, cRNA-injected Xenopus laevis oocytes
T1 sequence (Q7SYE4 1-718): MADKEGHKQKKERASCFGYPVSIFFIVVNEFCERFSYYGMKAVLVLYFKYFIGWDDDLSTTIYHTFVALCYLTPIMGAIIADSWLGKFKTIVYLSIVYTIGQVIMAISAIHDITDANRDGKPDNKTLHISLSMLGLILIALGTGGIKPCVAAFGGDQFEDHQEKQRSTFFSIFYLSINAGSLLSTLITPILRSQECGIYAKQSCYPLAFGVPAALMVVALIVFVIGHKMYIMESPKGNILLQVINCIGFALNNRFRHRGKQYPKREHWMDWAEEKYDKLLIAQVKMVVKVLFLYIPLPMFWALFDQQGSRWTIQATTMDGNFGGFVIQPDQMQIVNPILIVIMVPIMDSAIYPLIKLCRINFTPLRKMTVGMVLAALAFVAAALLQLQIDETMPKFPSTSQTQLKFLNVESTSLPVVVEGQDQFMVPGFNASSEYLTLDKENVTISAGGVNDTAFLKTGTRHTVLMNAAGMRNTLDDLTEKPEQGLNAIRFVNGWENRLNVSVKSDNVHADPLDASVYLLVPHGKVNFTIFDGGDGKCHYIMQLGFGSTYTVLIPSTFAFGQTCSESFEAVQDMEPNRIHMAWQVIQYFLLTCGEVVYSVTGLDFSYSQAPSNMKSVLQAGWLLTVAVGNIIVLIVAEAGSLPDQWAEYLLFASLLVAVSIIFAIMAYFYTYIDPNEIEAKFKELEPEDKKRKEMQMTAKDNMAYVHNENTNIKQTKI

[1] = substrate: NCC(=O)N[C@@H](CC(=O)O)C(=O)O; test: as above; format: cell-based, Danio rerio; conditions: pH 7.6, -60 mV, 18 degC incubation of oocytes, proton-coupled transport, 18.0 °C
Source text: (§1) two-electrode voltage clamp, transport current, Xenopus oocytes on zfPepT1a

[2] = substrate: NCCCC[C@H](N)C(=O)NCC(=O)O; test: as above; format: cell-based, Danio rerio; conditions: pH 7.6, -60 mV
Source text: as §1

[3] = substrate: NCCCC[C@H](N)C(=O)NCC(=O)O; test: cells, lysate or membranes; conditions: pH 7.6, -140 mV, estimate, saturation not reached up to 30 mmol/L
[4] = substrate: NCCCC[C@H](N)C(=O)NCC(=O)O; test: two-electrode voltage clamp, transport current, Xenopus oocytes; format: cell-based, Salmo salar; conditions: pH 7.6, -140 mV, strongly voltage dependent

Molecule: NCC(=O)N[C@@H](CCC(N)=O)C(=O)O [Gly-Gln] (H-Gly-Gln-OH)
- two-electrode voltage clamp, transport current, Xenopus oocytes (zfPepT1b; reference substrate): Gly-Lys and Lys-Gly currents are significantly reduced in amplitude if compared to those generated by Gly-Gln

Molecule: CSCC[C@H](NC(=O)[C@@H](N)CCCCN)C(=O)O [Lys-Met]
- two-electrode voltage clamp, transport current, Xenopus oocytes (zfPepT1b): in zebrafish PepT1b Lys-Met and Met-Lys show comparable currents

B1: zfPepT1a (Danio rerio) (protein)
chain: MPDSKMDETKKKKKKTAECCGYPISIFFIVVNEFCERFSYYGMRAVLVLYFRYFLLWDDDLATSIYHAFVALCYLTPILGAIIADSWLGKFKTIIYLSIVYAVGQVVMAVSTIHDITDANRDGTPDNFTLHIALSMLGLVLIALGTGGIKPCVAAFGGDQFQEHQSRQLNTFFSVFYLCINAGSLLSTLITPVLRAQECGIHTQQQCYPLAFGVPAALMVVSLVVFIAGSGMYTKTAPEGNIMGSVCKCIWFALNNRFRHRSDIYPKREHWMDWAEEKYDKLLIAQIKMVLKVLFLYIPLPMFWTLFDQKGSRWTLQATTMTGDFGGFVLQPDQMQTVNPILILTLVPIMDRIIFPLIKKCGLNFSPLKRMTVGMLFAATAFIAAALVQMEIDKTLPNFPSSSESQLKVVNMHSESLIVTVPSQEPLLIGSFESSPDYITFDQQDIRLAFNTTPEINKDLSLIKGSRQTLIIPSEPAEMYLKEDIKSKPKEGKNAVRFVNGWTAYLNITNLESSLQPSETSNYTLVSQGMRKFTLTDGIQSCEFSRKFGFGSSYTFLIPSDLFSTDCESIKEIEDMQPNSVHMALQIPQYFLITTGEVMFSVTGLQFSYSQAPKNMKSVLQAGWLCTNAVGNIIVLIVAELGKLPKQWAEYVLFASLLVAVSIIFSIMAYFYTYIDPAEIEAEILKQQETDPDKKKKKETLEMEEKENEQEIKQTKI
notes: complete ORF in pSPORT1, cRNA-injected Xenopus laevis oocytes
- K0.5 [1]: 5.89 ± 2.14 mmol/L
- K0.5 [2]: 18.35 ± 3.51 mmol/L

B2: asPepT1a (Salmo salar) (protein)
chain: MTDEEVVKKGKSKEVCGYPLSIFFIVVNEFCERFSYYGMRAVLVLYFRYFLRFDDDLATSIYHTFVALCYLTPILGAVVADSWLGKFKTIIYLSIVYAIGQVVMAVSAIHDITDTDRDGTPDNLTLHIVLSMVGLLLIALGTGGIKPCVAAFGGDQFQDHQAKQRSTFFSVFYLCINGGSLLSTIITPILRGQECGIHSQQKCYPLAFGVPAALMVVALVVFIIGSGMYHKTEPQGNIMLDVCKCIGFAVKNRFRHRSSSYPKRTHWMDWAEEKYEKLLIAQIKMVLKVLFLYIPLPMFWTLFDQKGSRWTLQATTMDGNFGSLILQPDQMQTVNPILILTLVPIMDSVVYPLIKKCGLNFTPLRRMTVGMFLAAMAFVAAALVQIQIDKTLPTFPSSSQSQLKLLNMGSIPLTVTLPNNDPFVIEAAKANANYLTFEEESINVSFQSPAISRTISLAKGKRQTLLIPSNLSAPMWEMTDDLMAKPEQGANAIRFVNGMAGAVNVSTFGSIEYSSASNYSLISNGKATFTITNGANTCEYSREFGFGSSYTLLIPSHFAWGLTCSESISGVEDIQPNSFHMGWQIPQYFLITCGEVVFSVTGLEFSYSQAPSNMKAVLQAGWLFTVAIGNFIVLIVAEIAQIEEQWAEFVLFASLLVAVCVIFSIMAYFYTYMDPAEIEAQFTDNGGKEESDKEELQMQKKDVVDHHNEDDEAKQTKM
- K0.5 [3]: 6.33 ± 0.78 mmol/L

B3: asPepT1b (Salmo salar) (protein)
chain: MTDIDVKKSKRKVDVCGYPLSIFFIVVNEFCERFSYYGMRAVLVLYFRYFLKWDDDLSTSIYHTFIALCYLTPILGAIVADSWLGKFKTIVYLSIVYTVGQVVMAVSAIHDITDTDRDGTPDNMTFHVAMSMVGLFLIALGTGGIKPCVAAFGGDQFEEHQEKQRSTFFSIFYLSINAGSLLSTVITPILRGQECGIHSQQKCYPLAFGVPAALMVVALIVFIMGSGMYNKTAPKGNIMLEVCKCIGFAVKNRFRHRSKKFPKREHWMDWADEKYDKLLVAQVKMVLKVMFLYIPLPMFWTLFDQQGSRWTLQATTMDGNFGILTVQPDQMQTVNPILILALVPIMDSLVYPLIKKCHLNFTPLKRMTVGMLIAALAFVAAALLQLQIDQTLPKLPQGVAGQVKFLNLNSAPLTLTIDGTIDVSVPAHQVNTGDYLTFDKSVRVVFNKNTSTGTDLILMSQTRRTALVSPTLDMNLVYDLSKKPDDGMNAIRFVNGLGSALNVTLGVGDIAPLAVSNYSLVPQGKAEFTIMNSGGASCLYSIDLGFGSAFTLLIPSTFTIGSPDCWQAIQVVEDIQPNTIHMGWQIPQYFLMTGGEVVFSVTGLEFSYSQAPSNMKSVLQAGWLFTVAVGNIIVLIVAEAAQLPDQWAEYILFASLLVVVCIVFAIMSYFYTYTDPAEIEAEFRQPEHGPERKRDQVEMERKDSDCSKSSKGSDMKKKDSVVEQLNQEVKQSKM
notes: as for B1
- K0.5 [4]: 0.18 ± 0.01 mmol/L
